B1: DVD474 (bispecific antibody, human IgG1, kappa)
heavy: not shown
light: DIQMTQSPSSLSASVGDRVTITCRASQVIRRSLAWYQQKPGKAPKLLIYAASNLASGVPSRFSGSGSGTDFTLTISSLQPEDFATYYCQQSNTSPLTFGQGTKVEIKRTVAAPSVFIFPPDIQMTQSPSSLSASVGDRVTITCRASQDVSTAVAWYQQKPGKAPKLLIYSASFLYSGVPSRFSGSGSGTDFTLTISSLQPEDFATTYYCQQSYTGTVTFGQGTKVEIKRTVAAPSVFIFPPSDEQLKSGTASVVCLLNNFYPREAKVQWKVDNALQSGNSQESVTEQDSKDSTYSLSSTLTLSKADYEKHKVYACEVTHQGLSSPVTKSFNRGEC
notes: Outer AB071 (VEGF), inner AB015 (DLL4); HC linker long, LC linker long; also called DVD-Ig DVD474
B2: DVD480 (bispecific antibody, human IgG1, kappa)
heavy: not shown
light: DIQMTQSPSSLSASVGDRVTITCRASQVIRRSLAWYQQKPGKAPKLLIYAASNLASGVPSRFSGSGSGTDFTLTISSLQPEDFATYYCQQSNTSPLTFGQGTKVEIKRTVAAPDIQMTQSPSSLSASVGDRVTITCRASQDVSTAVAWYQQKPGKAPKLLIYSASFLYSGVPSRFSGSGSGTDFTLTISSLQPEDFATTYYCQQSYTGTVTFGQGTKVEIKRTVAAPSVFIFPPSDEQLKSGTASVVCLLNNFYPREAKVQWKVDNALQSGNSQESVTEQDSKDSTYSLSSTLTLSKADYEKHKVYACEVTHQGLSSPVTKSFNRGEC
notes: Outer AB071 (VEGF), inner AB015 (DLL4); HC linker long, LC linker short; also called DVD-Ig DVD480
B3: DVD486 (bispecific antibody, human IgG1, kappa)
heavy: not shown
light: B1 light
notes: Outer AB071 (VEGF), inner AB015 (DLL4); HC linker short, LC linker long; also called DVD-Ig DVD486
B4: DVD446 (bispecific antibody, human IgG1, kappa)
heavy: not shown
light: DIQMTQSPSSLSASVGDRVTITCRASQVIRRSLAWYQQKPGKAPKLLIYAASNLASGVPSRFSGSGSGTDFTLTISSLQPEDFATYYCQQSNTSPLTFGQGTKVEIKRTVAAPDIVMTQSPDSLAVSLGERATISCRASESVDNYGISFMKWFQQKPGQPPKLLIYAASNQGSGVPDRFSGSGSGTDFTLTISSLQAEDVAVYYCQQSKEVPWTFGGGTKVEIKRTVAAPSVFIFPPSDEQLKSGTASVVCLLNNFYPREAKVQWKVDNALQSGNSQESVTEQDSKDSTYSLSSTLTLSKADYEKHKVYACEVTHQGLSSPVTKSFNRGEC
notes: Outer AB071 (VEGF), inner AB069 (DLL4); HC linker short, LC linker short; also called DVD-Ig DVD446
B5: DVD452 (bispecific antibody, human IgG1, kappa, L234A L235A)
heavy: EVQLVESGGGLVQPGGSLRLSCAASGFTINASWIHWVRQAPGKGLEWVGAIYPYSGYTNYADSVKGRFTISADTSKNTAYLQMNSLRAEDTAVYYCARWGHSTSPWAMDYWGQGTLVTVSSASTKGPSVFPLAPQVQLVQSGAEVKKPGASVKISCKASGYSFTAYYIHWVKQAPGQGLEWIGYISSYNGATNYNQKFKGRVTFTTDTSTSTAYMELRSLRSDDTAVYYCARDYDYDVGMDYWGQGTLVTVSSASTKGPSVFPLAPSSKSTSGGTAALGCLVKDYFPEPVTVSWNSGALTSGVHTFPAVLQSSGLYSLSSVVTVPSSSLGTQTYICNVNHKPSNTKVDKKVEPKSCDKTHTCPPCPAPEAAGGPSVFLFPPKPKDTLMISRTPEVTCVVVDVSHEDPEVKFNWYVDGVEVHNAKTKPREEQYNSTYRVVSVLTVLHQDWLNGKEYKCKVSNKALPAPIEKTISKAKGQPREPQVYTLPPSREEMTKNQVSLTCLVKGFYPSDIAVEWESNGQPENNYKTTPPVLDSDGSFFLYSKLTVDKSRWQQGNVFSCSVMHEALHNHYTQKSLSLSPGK
light: DIQMTQSPSSLSASVGDRVTITCRASQVIRRSLAWYQQKPGKAPKLLIYAASNLASGVPSRFSGSGSGTDFTLTISSLQPEDFATYYCQQSNTSPLTFGQGTKVEIKRTVAAPSVFIFPPDIVMTQSPDSLAVSLGERATISCRASESVDNYGISFMKWFQQKPGQPPKLLIYAASNQGSGVPDRFSGSGSGTDFTLTISSLQAEDVAVYYCQQSKEVPWTFGGGTKVEIKRTVAAPSVFIFPPSDEQLKSGTASVVCLLNNFYPREAKVQWKVDNALQSGNSQESVTEQDSKDSTYSLSSTLTLSKADYEKHKVYACEVTHQGLSSPVTKSFNRGEC
notes: Outer AB071 (VEGF), inner AB069 (DLL4); HC linker long, LC linker long; also called DVD-Ig DVD452
B6: DVD458 (bispecific antibody, human IgG1, kappa, L234A L235A)
heavy: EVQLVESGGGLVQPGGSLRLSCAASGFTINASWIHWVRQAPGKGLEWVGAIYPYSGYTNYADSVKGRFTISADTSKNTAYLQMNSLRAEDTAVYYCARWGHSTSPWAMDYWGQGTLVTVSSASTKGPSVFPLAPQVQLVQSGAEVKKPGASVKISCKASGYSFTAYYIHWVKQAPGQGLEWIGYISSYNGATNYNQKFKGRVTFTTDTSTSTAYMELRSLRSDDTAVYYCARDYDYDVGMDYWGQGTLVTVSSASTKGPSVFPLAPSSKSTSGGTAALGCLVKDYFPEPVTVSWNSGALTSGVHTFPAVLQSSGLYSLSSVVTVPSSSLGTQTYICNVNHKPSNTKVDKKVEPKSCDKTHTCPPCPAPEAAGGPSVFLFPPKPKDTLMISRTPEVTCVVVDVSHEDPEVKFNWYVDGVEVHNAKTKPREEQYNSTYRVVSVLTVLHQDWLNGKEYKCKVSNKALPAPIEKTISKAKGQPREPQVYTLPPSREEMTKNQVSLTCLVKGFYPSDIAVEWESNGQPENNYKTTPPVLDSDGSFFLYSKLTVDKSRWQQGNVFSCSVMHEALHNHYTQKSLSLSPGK
light: B4 light
notes: Outer AB071 (VEGF), inner AB069 (DLL4); HC linker long, LC linker short; also called DVD-Ig DVD458
B7: DVD464 (bispecific antibody, human IgG1, kappa)
heavy: not shown
light: B5 light
notes: Outer AB071 (VEGF), inner AB069 (DLL4); HC linker short, LC linker long; also called DVD-Ig DVD464
B8: DVD516 (bispecific antibody, human IgG1, lambda)
heavy: not shown
light: DIQMTQSPSSLSASVGDRVTITCRASQVIRRSLAWYQQKPGKAPKLLIYAASNLASGVPSRFSGSGSGTDFTLTISSLQPEDFATYYCQQSNTSPLTFGQGTKVEIKRTVAAPQAVVTQESALTTSPGETVTLTCRSSTGAVTTSNYANWVQEKPDHLFTGLIGGTNNRAPGVPARFSGSLIGDKAALTITGAQTEDEAIYFCALWYSNHWVFGGGTKLTVLGQPKAAPSVTLFPPSSEELQANKATLVCLISDFYPGAVTVAWKADSSPVKAGVETTTPSKQSNNKYAASSYLSLTPEQWKSHRSYSCQVTHEGSTVEKTVAPTECS
notes: Outer AB071 (VEGF), inner AB073 (DLL4); HC linker short, LC linker short; also called DVD-Ig DVD516
B9: DVD522 (bispecific antibody, human IgG1, kappa, lambda, L234A L235A)
heavy: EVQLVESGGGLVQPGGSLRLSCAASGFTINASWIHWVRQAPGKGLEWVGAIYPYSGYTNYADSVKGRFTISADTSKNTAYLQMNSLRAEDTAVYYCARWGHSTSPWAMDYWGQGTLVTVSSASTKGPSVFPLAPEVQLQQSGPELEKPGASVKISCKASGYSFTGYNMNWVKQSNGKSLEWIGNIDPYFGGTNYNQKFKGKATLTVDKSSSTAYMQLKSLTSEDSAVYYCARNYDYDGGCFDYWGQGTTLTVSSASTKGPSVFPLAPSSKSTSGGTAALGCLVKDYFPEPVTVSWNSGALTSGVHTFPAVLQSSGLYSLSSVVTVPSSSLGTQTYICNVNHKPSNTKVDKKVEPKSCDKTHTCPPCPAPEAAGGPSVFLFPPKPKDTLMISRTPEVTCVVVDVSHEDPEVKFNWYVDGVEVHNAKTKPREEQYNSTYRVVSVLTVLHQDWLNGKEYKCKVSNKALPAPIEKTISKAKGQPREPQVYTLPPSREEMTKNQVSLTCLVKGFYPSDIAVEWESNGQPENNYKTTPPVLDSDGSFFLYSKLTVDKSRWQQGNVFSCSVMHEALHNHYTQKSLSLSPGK
light: DIQMTQSPSSLSASVGDRVTITCRASQVIRRSLAWYQQKPGKAPKLLIYAASNLASGVPSRFSGSGSGTDFTLTISSLQPEDFATYYCQQSNTSPLTFGQGTKVEIKRTVAAPSVFIFPPQAVVTQESALTTSPGETVTLTCRSSTGAVTTSNYANWVQEKPDHLFTGLIGGTNNRAPGVPARFSGSLIGDKAALTITGAQTEDEAIYFCALWYSNHWVFGGGTKLTVLGQPKAAPSVTLFPPSSEELQANKATLVCLISDFYPGAVTVAWKADSSPVKAGVETTTPSKQSNNKYAASSYLSLTPEQWKSHRSYSCQVTHEGSTVEKTVAPTECS
notes: Outer AB071 (VEGF), inner AB073 (DLL4); HC linker long, LC linker long; also called DVD-Ig DVD522
B10: DVD528 (bispecific antibody, human IgG1, lambda)
heavy: not shown
light: B8 light
notes: Outer AB071 (VEGF), inner AB073 (DLL4); HC linker long, LC linker short; also called DVD-Ig DVD528
B11: DVD534 (bispecific antibody, human IgG1, kappa, lambda, L234A L235A)
heavy: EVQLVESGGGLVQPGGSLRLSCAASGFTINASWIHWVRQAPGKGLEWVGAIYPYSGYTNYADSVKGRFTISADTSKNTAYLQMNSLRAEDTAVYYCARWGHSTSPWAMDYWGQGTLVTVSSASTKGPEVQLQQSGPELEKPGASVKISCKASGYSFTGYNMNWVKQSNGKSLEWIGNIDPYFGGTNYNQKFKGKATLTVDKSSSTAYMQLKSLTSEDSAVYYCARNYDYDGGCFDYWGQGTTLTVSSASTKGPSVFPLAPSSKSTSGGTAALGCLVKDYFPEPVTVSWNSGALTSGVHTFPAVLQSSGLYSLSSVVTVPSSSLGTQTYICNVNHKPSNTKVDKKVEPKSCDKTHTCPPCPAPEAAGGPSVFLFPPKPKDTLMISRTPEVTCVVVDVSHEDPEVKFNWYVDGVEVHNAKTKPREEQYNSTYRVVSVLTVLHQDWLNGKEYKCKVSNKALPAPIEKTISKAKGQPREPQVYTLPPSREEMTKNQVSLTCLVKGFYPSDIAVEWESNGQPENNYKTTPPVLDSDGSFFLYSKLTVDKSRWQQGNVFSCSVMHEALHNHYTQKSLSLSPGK
light: B9 light
notes: Outer AB071 (VEGF), inner AB073 (DLL4); HC linker short, LC linker long; also called DVD-Ig DVD534
B12: DVD492 (bispecific antibody, human IgG1, kappa)
heavy: not shown
light: DIQMTQSPSSLSASVGDRVTITCRASQVIRRSLAWYQQKPGKAPKLLIYAASNLASGVPSRFSGSGSGTDFTLTISSLQPEDFATYYCQQSNTSPLTFGQGTKVEIKRTVAAPDIQMTQSSSYLSVSLGGRVTITCKASDHINNWLAWYQQKPGNAPRLLISGATSLETGVPSRFSGSGSGKDYTLSITSLQTEDVATYYCQQYWSIPLTFGAGTKLELKRTVAAPSVFIFPPSDEQLKSGTASVVCLLNNFYPREAKVQWKVDNALQSGNSQESVTEQDSKDSTYSLSSTLTLSKADYEKHKVYACEVTHQGLSSPVTKSFNRGEC
notes: Outer AB071 (VEGF), inner AB072 (DLL4); HC linker short, LC linker short; also called DVD-Ig DVD492
B13: DVD498 (bispecific antibody, human IgG1, kappa)
heavy: not shown
light: DIQMTQSPSSLSASVGDRVTITCRASQVIRRSLAWYQQKPGKAPKLLIYAASNLASGVPSRFSGSGSGTDFTLTISSLQPEDFATYYCQQSNTSPLTFGQGTKVEIKRTVAAPSVFIFPPDIQMTQSSSYLSVSLGGRVTITCKASDHINNWLAWYQQKPGNAPRLLISGATSLETGVPSRFSGSGSGKDYTLSITSLQTEDVATYYCQQYWSIPLTFGAGTKLELKRTVAAPSVFIFPPSDEQLKSGTASVVCLLNNFYPREAKVQWKVDNALQSGNSQESVTEQDSKDSTYSLSSTLTLSKADYEKHKVYACEVTHQGLSSPVTKSFNRGEC
notes: Outer AB071 (VEGF), inner AB072 (DLL4); HC linker long, LC linker long; also called DVD-Ig DVD498
B14: DVD504 (bispecific antibody, human IgG1, kappa)
heavy: not shown
light: B12 light
notes: Outer AB071 (VEGF), inner AB072 (DLL4); HC linker long, LC linker short; also called DVD-Ig DVD504
B15: DVD510 (bispecific antibody, human IgG1, kappa)
heavy: not shown
light: B13 light
notes: Outer AB071 (VEGF), inner AB072 (DLL4); HC linker short, LC linker long; also called DVD-Ig DVD510

biological target: T1, DLL4 ECD His tag (UniProt Q9NR61 27-529, limits assumed); assay: SPR (Biacore), DVD-Ig captured, DLL4 as analyte
T1 construct: extracellular domain; also called DLL ECD His tag

Binder	Kd [nM]	koff [s⁻¹]	kon [M⁻¹ s⁻¹]
B1	1.04		
B2	3.38	0.000179	53000
B3	2.13		
B4	5.81	0.000169	29100
B5	9.3	0.00022	23700
B6	16.2	0.000261	16100
B7	5.53	0.000182	32800
B8	4.99	0.000583	117000
B9	10.5	0.00121	115000
B10	4.81	0.00152	316000
B11	5.78	0.002	346000
B12	1.07	8.35e-05	78200
B13	1.45	9.36e-05	64600
B14	1.26	7.32e-05	58100
B15	1.55	8.84e-05	56900

Reference: US20100260668A1 (published 2010)
